Columns and labels:
Assay in all cases: EMSA
Conditions in all cases: […] (binding temperature not stated)
[1] = biological target: PhoP (PhoPmas) WT, unphosphorylated (Mycobacterium abscessus subsp. massiliense CIP108297 (Mmas; subspecies name implied?)) (UniProt B1MHU9)
[2] = biological target: PhoP D71N D71N (Mycobacterium abscessus subsp. massiliense CIP108297 (Mmas; subspecies name implied?)) (UniProt B1MHU9)
[3] = biological target: PhoP K224A K224A (Mycobacterium abscessus subsp. massiliense CIP108297 (Mmas; subspecies name implied?)) (UniProt B1MHU9)

AGGTAATCTTCCCCCCAAAATTTACGATGCGCTGGATCTTCACTGTGAGCTTCCTGTGAGTTACTCACAGCAGATTGTCAGCCAACCGCGCCAGGTCGCCCTACAGTTGAGCC (double strand) [phoP promoter probe WT]
binding [1]: binds | binding [2]: binds more weakly | binding [3]: no binding
